Three substances from PMC12204462 can be followed below.

The data set has as its system AsCas12a. Put plainly: BLI. Particulars: not stated in material.

ΨDNA (cDNA with 3' handle; BLI) showed a Kd of 24.5 nM. In the case of crRNA (BLI) it was 3.7 nM.

As for cDNA with 5' handle, the Kd is < 37 nM.

By Kd is commonly meant the free concentration of one partner at which half of the binding sites on the other are occupied at equilibrium, for simple one-to-one binding.
